Laboratory results published in patent US20230279105A1 (SINGLE CELL TECHNOLOGY, published 2023).
Numbering of substitutions follows the chain as printed.

B1: SCT-Fa068 (antibody, V domains shown)
VH: EVQLQQSGTVLARPGASVKMSCKTSGYTFTRYWMHWVKQRPGQGLEWIGAIYPGNSDTNYNQKIKGKAKLTAVTTASTAYMELSSLTNEDSAVYYCTFYYGNYVNYWGQGTTLTVSS
VL: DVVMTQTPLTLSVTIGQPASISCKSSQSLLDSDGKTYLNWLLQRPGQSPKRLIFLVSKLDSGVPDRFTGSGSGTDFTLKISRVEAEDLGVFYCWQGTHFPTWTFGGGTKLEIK
notes: murine IgG
B2: SCT-Fa064 (antibody, V domains shown)
VH: B1 VH with G66D, Y99F
VL: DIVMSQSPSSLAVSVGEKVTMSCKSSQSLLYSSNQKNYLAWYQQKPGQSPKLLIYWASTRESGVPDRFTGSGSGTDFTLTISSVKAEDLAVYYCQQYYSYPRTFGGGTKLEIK
notes: murine IgG
B3: SCT-Fa066 (antibody, V domains shown)
VH: B1 VH with V93A
VL: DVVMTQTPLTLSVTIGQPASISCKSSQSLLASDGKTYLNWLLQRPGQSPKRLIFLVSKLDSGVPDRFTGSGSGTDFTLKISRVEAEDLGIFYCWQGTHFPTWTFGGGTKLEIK
notes: murine IgG
B4: SCT-Fa065 (antibody, V domains shown)
VH: B1 VH with S84I
VL: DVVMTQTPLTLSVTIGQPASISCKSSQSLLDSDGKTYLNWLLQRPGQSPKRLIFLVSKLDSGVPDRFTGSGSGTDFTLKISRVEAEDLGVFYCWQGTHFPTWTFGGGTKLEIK
notes: murine IgG
B5: SCT-Fa062 (antibody, V domains shown)
VH: B1 VH with S25P
VL: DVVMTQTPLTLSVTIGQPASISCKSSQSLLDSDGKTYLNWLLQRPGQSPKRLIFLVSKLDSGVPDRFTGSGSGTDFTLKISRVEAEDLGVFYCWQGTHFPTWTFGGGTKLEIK
notes: murine IgG
B6: SCT-Fa063 (antibody, V domains shown)
VH: B1 VH with T30I, N59T, I64F, K67R, T75S, Y106F
VL: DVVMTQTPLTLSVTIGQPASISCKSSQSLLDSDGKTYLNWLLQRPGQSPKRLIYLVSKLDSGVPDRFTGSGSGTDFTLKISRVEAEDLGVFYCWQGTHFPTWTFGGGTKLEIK
notes: murine IgG
B7: SCT-Fa069 (antibody, V domains shown)
VH: B1 VH with K65Q, G66D, Y99F
VL: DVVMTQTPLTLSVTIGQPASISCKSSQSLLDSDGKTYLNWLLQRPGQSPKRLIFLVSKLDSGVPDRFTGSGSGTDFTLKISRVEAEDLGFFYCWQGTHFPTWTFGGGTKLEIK
notes: murine IgG
B8: SCT-Fa067 (antibody, V domains shown)
VH: B1 VH
VL: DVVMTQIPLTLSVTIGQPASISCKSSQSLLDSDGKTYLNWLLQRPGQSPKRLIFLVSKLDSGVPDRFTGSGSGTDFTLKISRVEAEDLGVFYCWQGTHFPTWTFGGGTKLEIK
notes: murine IgG
B9: SCT-Fa092 (antibody, V domains shown)
VH: QIQLVQSGPEMKKPGETVKISCKASGYTFRTYGMSWVKQAPGKGLEWMGWINTYSGEPTYADDFKGRFAFSLETSANTAYLQINNLKNEDTATFFCARAQHYFDWWGQGTTLTVSS
VL: DIKMTQSPSSMYASLGERVTITCKASQDIDSYLNWFQQKPGKSPKTLIYRATRLVDGVPSRFSGSGSGQDYSLTISSLEYEDMGIYYCLQYDEFPYTFGGGTKLEIK
notes: murine IgG
B10: SCT-Fa091 (antibody, V domains shown)
VH: B9 VH
VL: B9 VL with S31R
notes: murine IgG
B11: SCT-Fa090 (antibody, V domains shown)
VH: B9 VH with T28I
VL: B9 VL
notes: murine IgG
B12: SCT-Fa095 (antibody, V domains shown)
VH: QVQLKESGPGLVAPSQSLSITCTVSGFSLTSSVISWVRQPPGKGLEWLGIIWAGGDTNYNSALKSRLSISKDNSKSQVFLKMNSLQTDDTARYYCARNLNAMDYWGQGTSVTVSS
VL: DVLMTQTPLSLTVSLGDQASISCRSSQSIVHSNGNTYLEWFLQKPGQSPKLLIYKVSNRFSGVPDRFSGSGSGTDFTLKISRVEAEDLGVYYCFQGSHVPWTFGGGTKLEIK
notes: murine IgG
B13: SCT-Fa072 (antibody, V domains shown)
VH: EVQLVESGGDLVKPGGSLKLSCAASGFTFSDYGMSWVRQTPDKRLEWVATISSGGSYTYYADSVKGRFTISRDNAKNTLYLQMSSLKSEDTAMYFCTRHEITTVLSTDYAMDYWGQGTSVTVSS
VL: DVVMTQTPLSLPVSLGDQASISCRSSQSLVHSIGNTYLHWYLQKPGQSPKLLIYKVSNRFSGVPDRFSGSGSGTDFTLKIIRVEAEDLGVYFCSQSTHIPWTFGGGTKLELR
notes: murine IgG
B14: SCT-Fa094 (antibody, V domains shown)
VH: QVLLQQPGAELVRPGTSVKLSCKASGYTFTNFWMHWVKQRPGQGLEWIGVIDPSDISTHYNQNFKGKAILTVDTSSSSAYMQLSSLTSEDSAVYYCARNDYDGGYFDYWGQGTTLTVSS
VL: B13 VL with S32G, I33N, K55T, I81S, S96T, T97I, I99A, L111I, R112K
notes: murine IgG
B15: SCT-Fa077 (antibody, V domains shown)
VH: EVRLVESEGGLVQPGSSMKLSCTASGFTFSDYYMAWVRQVPEKGLEWVANINYDGTNTYYLDSLKSRFIISRDNAKNILYLQMSGLKSEDTATYYCGRGIYYYGRSHAMDYWGQGTSVTVSS
VL: DILMTQSPSSMSVSLGDTVSITCHASQGINNNVGWLQQKPGKSFKGLIYHGTNLEDGVPSRFSGSGSGADYSLTIYSLESEDFADYYCVQYDQFPPTFGGGTKLEIK
notes: murine IgG
B16: SCT-Fa076 (antibody, V domains shown)
VH: EVQVLETGGGLVQPGGSRGLSCEGSGFTFSGFWMSWVRQTPGKTLEWIGDINSDGSTIHYGPSMKDRFTIFRDNDKNTLYLQMNNVRSEDTAKYFCMSLLLNVWGTGTTVTVSS
VL: DIQMTQSPSSLSASLGERVSLTCRASQEISGYLSWLQQKPDGTIKRLISRASSLDFGVPKRFRGSRSGSDYSLTISSLESEDFADYYCLQYANYPLTFGAGTKLELK
notes: murine IgG
B17: SCT-Fa088 (antibody, V domains shown)
VH: QIQLQQSGPELVKPGASVKISCKASGYTFTDYYINWVKQRPGQGLEWIGWIYPGSGNTKYNEKFKGKATLTVDTSSSTAYMQLSSLTSEDSAVYFCARAYDYGFAYWGQGTLVTVSA
VL: SIVMTQTPKFLLVSAGDRVTITCKASQSVSHGVTWYQQKPGQSPKLLISYASNRYTGVPDRFTGSGYGTDFTFTISTVQAEDLAVYFCQQDYSSPYTFGGGTKLEIK
notes: murine IgG
B18: SCT-Fa087 (antibody, V domains shown)
VH: B17 VH with Q82H
VL: B17 VL with H31Y, A51S, Y67S
notes: murine IgG
B19: SCT-Fa086 (antibody, V domains shown)
VH: B17 VH with S77N, A105P
VL: B17 VL with V29M, S30N, H31N, T77A
notes: murine IgG

Each binder was assayed against T1, Human TIM-3 Human Fc tagged protein (human, fluorescently labeled with HiLyte Fluor 555 (sites not given)) (assay: capture slide probed with labeled TIM-3-Fc;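 further: IgG from single CD138-enriched plasma cells, isolated from lymphocytes, immobilized on a derivatized glass slide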).
T1 construct: Bought construct; also called TIM-3 protein tagged with human Fc; ACROBiosystems catalog no: TM3-H5258

Binding result, binds:
B1
B2
B3
B4
B5
B6
B7
B8
B9
B10
B11
B12
B13
B14
B15
B16
B17
B18
B19
